Assay results from US20030049732A1 (Human Genome Sciences, published 2003).
Blank lines part the entries; values can stand above or below the binder they belong to.

B2: Caspase-9 (enzyme, UniProt P55211 1-416, looked up)
chain: MDEADRRLLRRCRLRLVEELQVDQLWDALLSRELFRPHMIEDIQRAGSGSRRDQARQLIIDLETRGSQALPLFISCLEDTGQDMLASFLRTNRQAAKLSKPTLENLTPVVLRPEIRKPEVLRPETPRPVDIGSGGFGDVGALESLRGNADLAYILSMEPCGHCLIINNVNFCRESGLRTRTGSNIDCEKLRRRFSSLHFMVEVKGDLTAKKMVLALLELAQQDHGALDCCVVVILSHGCQASHLQFPGAVYGTDGCPVSVEKIVNIFNGTSCPSLGGKPKLFFIQACGGEQKDHGFEVASTSPEDESPGSNPEPDATPFQEGLRTFDQLDAISSLPTPSDIFVSYSTFPGFVSWRDPKSGSWYVETLDDIFEQWAHSEDLQSLLLRVANAVSVKGIYKQMPGCFNFLRKKLFFKTS
notes: also called procaspase-9; procaspas-9

How the values were obtained:
[1] = molecular target: T1, RICK (UniProt O43353 1-540); experiment: co-transfection of WT or mutant Nod1 and RICK in 293T cells
T1 construct: also called serine-threonine kinase with a CARD

[2] = molecular target: B2; experiment: co-immunoprecipitation from co-transfected 293T cells, immunoblot
Description: (§1) Both Ced-4 and Apaf-1 associate with their target caspases via their corresponding CARDs (Zou et al., Cell, 90:405 (1997); Hu et al., Proc. Natl. Acad. Sci. USA, 95:4386 (1998); ); Chinnaiyan et al., Nature, 388:728 (1997); Hu et al., Proc. Natl. Acad. Sci. USA, 95:4386 (1998); Srinivasula et al., Mol. Cell, 1:946 (1998); Chaudhary et al., J. Biol. Chem., 273:17708 (1998); Yang et al., Science, 281:1355 (1998)).

[3] = molecular target: T2, Nod1 mutant, residues 126-953 (human, UniProt Q9Y239 126-953); experiment: as above
T2 construct: also called mutant lacking the CARD
T2 sequence: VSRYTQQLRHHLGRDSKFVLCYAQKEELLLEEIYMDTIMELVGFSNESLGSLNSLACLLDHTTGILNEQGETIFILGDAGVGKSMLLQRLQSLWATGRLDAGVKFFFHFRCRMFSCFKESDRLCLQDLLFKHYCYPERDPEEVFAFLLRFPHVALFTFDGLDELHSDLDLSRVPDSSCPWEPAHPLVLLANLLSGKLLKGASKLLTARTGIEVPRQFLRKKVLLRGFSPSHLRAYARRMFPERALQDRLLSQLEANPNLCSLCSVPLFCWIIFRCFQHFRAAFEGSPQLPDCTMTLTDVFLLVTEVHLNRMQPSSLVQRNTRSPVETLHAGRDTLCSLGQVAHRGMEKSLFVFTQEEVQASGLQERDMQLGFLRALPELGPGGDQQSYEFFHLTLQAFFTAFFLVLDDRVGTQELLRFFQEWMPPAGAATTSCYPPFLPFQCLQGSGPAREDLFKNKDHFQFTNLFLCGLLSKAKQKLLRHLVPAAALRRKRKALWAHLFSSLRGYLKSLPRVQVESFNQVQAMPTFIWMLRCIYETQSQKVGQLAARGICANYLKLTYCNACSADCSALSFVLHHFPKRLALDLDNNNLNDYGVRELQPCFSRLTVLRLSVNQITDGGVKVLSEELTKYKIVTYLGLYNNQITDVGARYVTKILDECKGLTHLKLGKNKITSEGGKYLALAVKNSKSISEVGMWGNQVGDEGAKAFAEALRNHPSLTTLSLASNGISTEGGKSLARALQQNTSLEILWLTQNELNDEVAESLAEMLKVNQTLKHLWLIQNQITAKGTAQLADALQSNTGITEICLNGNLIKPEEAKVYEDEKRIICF
Description: as §1

[4] = molecular target: T3, Apaf-1 (UniProt O14727-3 1-1194, limits assumed); experiment: co-immunoprecipitation, tagged proteins transiently expressed in 293T cells
T3 sequence (looked up): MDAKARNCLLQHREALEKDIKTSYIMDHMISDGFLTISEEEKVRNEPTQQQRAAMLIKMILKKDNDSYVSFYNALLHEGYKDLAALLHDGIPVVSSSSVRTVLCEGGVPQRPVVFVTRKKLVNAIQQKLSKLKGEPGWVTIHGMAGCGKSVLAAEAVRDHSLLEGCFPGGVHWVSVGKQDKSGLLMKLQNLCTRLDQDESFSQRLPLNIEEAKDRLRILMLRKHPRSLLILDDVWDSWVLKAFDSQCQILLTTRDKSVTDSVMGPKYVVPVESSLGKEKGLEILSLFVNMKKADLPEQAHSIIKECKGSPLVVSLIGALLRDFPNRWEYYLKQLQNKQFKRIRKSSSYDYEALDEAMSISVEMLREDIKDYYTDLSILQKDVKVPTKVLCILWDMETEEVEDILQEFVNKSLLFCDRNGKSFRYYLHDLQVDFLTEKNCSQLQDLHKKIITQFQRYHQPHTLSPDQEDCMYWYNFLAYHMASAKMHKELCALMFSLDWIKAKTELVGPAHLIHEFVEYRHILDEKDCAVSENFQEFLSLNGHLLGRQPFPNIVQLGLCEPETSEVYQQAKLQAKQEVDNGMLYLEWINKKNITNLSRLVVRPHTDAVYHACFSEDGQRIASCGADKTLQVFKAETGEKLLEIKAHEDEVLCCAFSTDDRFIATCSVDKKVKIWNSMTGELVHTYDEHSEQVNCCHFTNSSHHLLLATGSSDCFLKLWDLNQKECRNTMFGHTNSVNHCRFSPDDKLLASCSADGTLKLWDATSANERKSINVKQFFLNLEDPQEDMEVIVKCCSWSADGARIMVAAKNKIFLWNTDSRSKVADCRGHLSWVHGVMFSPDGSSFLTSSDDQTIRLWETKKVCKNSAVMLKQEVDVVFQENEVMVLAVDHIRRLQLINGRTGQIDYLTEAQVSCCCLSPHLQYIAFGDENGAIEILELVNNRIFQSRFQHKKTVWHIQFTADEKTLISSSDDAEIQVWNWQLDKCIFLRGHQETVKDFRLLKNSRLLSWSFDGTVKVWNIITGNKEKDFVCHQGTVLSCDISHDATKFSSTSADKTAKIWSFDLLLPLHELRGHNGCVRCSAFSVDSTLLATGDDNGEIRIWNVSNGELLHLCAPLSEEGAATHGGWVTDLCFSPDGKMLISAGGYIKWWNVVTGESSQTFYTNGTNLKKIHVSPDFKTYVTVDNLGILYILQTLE
Description: The CARD and its structurally related death effector domain (DED) are peptide motifs that mediate interactions between apoptosis-regulatory proteins (Science 281:1301 (1998); Hofmann et al., Trends Biochem. Sci. 22:155 (1998)).

T1 sequence (O43353 whole entry): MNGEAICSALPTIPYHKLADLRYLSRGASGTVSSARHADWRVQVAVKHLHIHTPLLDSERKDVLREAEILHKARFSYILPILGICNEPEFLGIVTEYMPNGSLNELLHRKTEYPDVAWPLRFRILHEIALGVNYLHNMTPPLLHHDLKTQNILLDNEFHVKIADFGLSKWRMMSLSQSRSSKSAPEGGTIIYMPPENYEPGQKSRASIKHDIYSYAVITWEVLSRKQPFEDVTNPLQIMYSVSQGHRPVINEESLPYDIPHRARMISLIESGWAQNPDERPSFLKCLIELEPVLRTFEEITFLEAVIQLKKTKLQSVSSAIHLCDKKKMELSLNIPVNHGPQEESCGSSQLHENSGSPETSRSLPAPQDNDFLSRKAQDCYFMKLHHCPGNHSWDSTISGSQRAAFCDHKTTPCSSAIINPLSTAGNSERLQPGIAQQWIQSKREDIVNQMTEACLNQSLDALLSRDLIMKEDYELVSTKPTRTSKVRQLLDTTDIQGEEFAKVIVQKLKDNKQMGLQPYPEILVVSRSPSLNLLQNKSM

binding result [1]: no binding
binding result [2]: no binding
B1: Nod1 mutant, residues 649-953 (other)
chain: MPTFIWMLRCIYETQSQKVGQLAARGICANYLKLTYCNACSADCSALSFVLHHFPKRLALDLDNNNLNDYGVRELQPCFSRLTVLRLSVNQITDGGVKVLSEELTKYKIVTYLGLYNNQITDVGARYVTKILDECKGLTHLKLGKNKITSEGGKYLALAVKNSKSISEVGMWGNQVGDEGAKAFAEALRNHPSLTTLSLASNGISTEGGKSLARALQQNTSLEILWLTQNELNDEVAESLAEMLKVNQTLKHLWLIQNQITAKGTAQLADALQSNTGITEICLNGNLIKPEEAKVYEDEKRIICF
notes: also called the LRRs of Nod1; mutant containing the LRRs

Binder: B2
binding result [3]: no binding

binding result [4]: no binding
B3: Nod1 (other)
chain: MEEQGHSEMEIIPSESHPHIQLLKSNRELLVTHIRNTQCLVDNLLKNDYFSAEDAEIVCACPTQPDKVRKILDLVQSKGEEVSEFFLYLLQQLADAYVDLRPWLLEIGFSPSLLTQSKVVVNTDPVSRYTQQLRHHLGRDSKFVLCYAQKEELLLEEIYMDTIMELVGFSNESLGSLNSLACLLDHTTGILNEQGETIFILGDAGVGKSMLLQRLQSLWATGRLDAGVKFFFHFRCRMFSCFKESDRLCLQDLLFKHYCYPERDPEEVFAFLLRFPHVALFTFDGLDELHSDLDLSRVPDSSCPWEPAHPLVLLANLLSGKLLKGASKLLTARTGIEVPRQFLRKKVLLRGFSPSHLRAYARRMFPERALQDRLLSQLEANPNLCSLCSVPLFCWIIFRCFQHFRAAFEGSPQLPDCTMTLTDVFLLVTEVHLNRMQPSSLVQRNTRSPVETLHAGRDTLCSLGQVAHRGMEKSLFVFTQEEVQASGLQERDMQLGFLRALPELGPGGDQQSYEFFHLTLQAFFTAFFLVLDDRVGTQELLRFFQEWMPPAGAATTSCYPPFLPFQCLQGSGPAREDLFKNKDHFQFTNLFLCGLLSKAKQKLLRHLVPAAALRRKRKALWAHLFSSLRGYLKSLPRVQVESFNQVQAMPTFIWMLRCIYETQSQKVGQLAARGICANYLKLTYCNACSADCSALSFVLHHFPKRLALDLDNNNLNDYGVRELQPCFSRLTVLRLSVNQITDGGVKVLSEELTKYKIVTYLGLYNNQITDVGARYVTKILDECKGLTHLKLGKNKITSEGGKYLALAVKNSKSISEVGMWGNQVGDEGAKAFAEALRNHPSLTTLSLASNGISTEGGKSLARALQQNTSLEILWLTQNELNDEVAESLAEMLKVNQTLKHLWLIQNQITAKGTAQLADALQSNTGITEICLNGNLIKPEEAKVYEDEKRIICF
notes: also called wild-type Nod1; WT Nod1
